Series [1] relates to eIF2 heterotrimer (WT eIF2γ, His-tagged) (Saccharomyces cerevisiae). Description: filter binding. The conditions noted are these: aminoacylated with Met; Filter binding: 25 mM HEPES-KOH pH 7.6, 2.5 mM Mg(OAc)2, 80 mM KOAc, 2 mM DTT, 0.5 mM GDPNP-Mg2+, 1 nM tRNA, 3.125-200 nM eIF2, 26 C; pull-down: 20 mM Tris-HCl ….
Series [2] has as its system eIF2 heterotrimer with eIF2γ-I318M (His-tagged) (Saccharomyces cerevisiae). Description: filter binding. The conditions noted are these: aminoacylated with Met; Filter binding: 25 mM HEPES-KOH pH 7.6, 2.5 mM Mg(OAc)2, 80 mM KOAc, 2 mM DTT, 0.5 mM GDPNP-Mg2+, 1 nM tRNA, 3.125-200 nM eIF2, 26 C; pull-down: 20 mM Tris-HCl ….

Our source for the Kd values is publication PMC6344876.

What is called Kd is the equilibrium constant for the complex coming apart. With “[35S]Met-tRNAiMet (in vitro transcribed)”, the Kd was 18 nM in series [1] and 98 nM in series [2].
